These results are taken from US20040009897A1.

Assay [1] concerns the target human recombinant soluble CD4 (human) (UniProt P01730). Put plainly: competitive ELISA on rsCD4; competitor mAb B4-HRP; unlabelled mAb B4 at 2.0 µg/mL, positive control run with week 17 sera.
Assay [2] shares this target. The experiment in a line: competitive ELISA on rsCD4; competitor mAb B4-HRP; unlabelled mAb B4 at 2.0 µg/mL, positive control run with week 9 sera.
The target is the same in assay [3]. The experiment in a line: competitive ELISA on rsCD4; competitor mAb B4-HRP; unlabelled mAb B4 at 20 µg/mL, positive control run with week 17 sera. (In an ELISA, binding on a coated surface is turned into a signal by an enzyme label.)
For assay [4] the target is unchanged. Put plainly: competitive ELISA on rsCD4; competitor mAb B4-HRP; unlabelled mAb B4 at 20 µg/mL, positive control run with week 9 sera.
The target is the same in assay [5]. Put plainly: competitive ELISA on rsCD4; competitor mAb B4-HRP; unlabelled mAb B4 at 2.0 µg/mL, positive control run with week 11 sera.
The target is the same in assay [6]. Put plainly: competitive ELISA on rsCD4; competitor mAb B4-HRP; unlabelled mAb B4 at 20 µg/mL, positive control run with week 11 sera.

For “mAb B4 (anti-binding site monoclonal antibody), unlabelled, purified”, the % Inhibition was determined as 11.7% in assay [1]; 23.5% in assay [2]; 48.7% in assay [3]; 63% in assay [4]; 11.7% in assay [5]; 63% in assay [6].

The % Inhibition is the relative decrease from the control value, in per cent.
